Laboratory results from US20230357447A1 (JANUX THERAPEUTICS, published 2023).

Tests used:
[1] = molecular target: T1, Anti-CD28 scFv (VH-linker 1-VL) (biotinylated (site not stated)); experiment: phage binding ELISA on captured anti-CD28 scFv, wells pre-incubated with soluble CD28 (competitor);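 further: crude clonal phage supernatants added without washing, bound phage detected by HRP-conjugated anti-M13 antibody, control wells held blocking buffer alone instead of CD28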
T1 construct: biotinylated and captured on neutravidin coated plates in the phage ELISA

[2] = molecular target: T1, Anti-CD28 scFv (VH-linker 1-VL); experiment: phage binding ELISA on captured biotinylated anti-CD28 scFv;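 further: crude clonal phage supernatants applied to the wells, bound phage read out with an HRP-conjugated anti-M13 antibody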
Method: (§1) Clonal phage were harvested as crude supernatants and screened via standard enzyme linked immunosorbent assays (ELISAs). […] Prior to the addition of clonal phage, wells were incubated with blocking buffer and CD28 soluble protein or blocking buffer alone. Without washing or aspirating, clonal phage supernatants were then added to the wells and incubated for a short time. Wells were then washed followed by detection of bound phage using a horse radish peroxidase conjugated anti-M13 antibody.

[3] = molecular target: T2, anti-CD28 scFv (VH-linker 1-VL) (biotinylated (site not stated)); experiment: phage ELISA; biotinylated scFv on neutravidin plate; anti-M13-HRP;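 further: crude clonal phage supernatant added to wells pre-incubated with soluble CD28 protein or only blocking buffer, then washed, bound phage read out with an HRP-linked anti-M13 antibody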
T2 construct: Captured as biotinylated scFv on neutravidin coated plates in the phage ELISA

[4] = molecular target: T2, anti-CD28 scFv (VH-linker 1-VL); experiment: phage ELISA; scFv wells pre-incubated with soluble CD28 (competitor);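 further: crude clonal phage supernatants added to wells pretreated with soluble CD28 in blocking buffer, bound phage read via HRP-linked anti-M13 antibody, reference wells got blocking buffer only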
Method: as §1

T1 sequence (scFv, as listed by the source): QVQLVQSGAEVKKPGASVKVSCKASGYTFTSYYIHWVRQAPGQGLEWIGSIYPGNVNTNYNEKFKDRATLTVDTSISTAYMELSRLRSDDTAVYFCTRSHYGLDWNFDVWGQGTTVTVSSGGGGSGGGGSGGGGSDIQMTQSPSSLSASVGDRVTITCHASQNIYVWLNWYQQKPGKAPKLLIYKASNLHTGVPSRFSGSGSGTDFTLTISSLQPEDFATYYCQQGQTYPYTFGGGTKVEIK
T2 sequence (scFv, as listed by the source): as above

Binder | CD28 scFv signal in presence of CD28 [1] | CD28 scFv signal [2] | CD28 scFv signal [3] | CD28 scFv signal in presence of CD28 [4]
MHWCPTYMWSECFA [Phage-400] | 0.161 | 1.84 |  | 
MDWCPRNMWNECFF [Phage-398] | 0.43 | 2.1 |  | 
IYWCPTAMWNRCSA [Phage-417] | 0.073 | 0.817 |  | 
VPWCLIISGLDCLN (on phage (pIII fusion)) [Phage-231 clonal phage peptide] |  |  | 0.107 | 0.09
ITWCHVISGLECWN (on phage (pIII fusion)) [Phage-228 clonal phage peptide] |  |  | 0.193 | 0.1
MDWCPMSMWAFCFD [Phage-405] | 0.16 | 1.41 |  | 
MDWCPKDMWAECFN [Phage-395] | 0.457 | 2.11 |  | 
FDFCPTTMWTYCQH (on phage (pIII fusion)) [Phage-220 clonal phage peptide] |  |  | 0.086 | 0.081
MDWCPRHLWFECFN (on phage (pIII fusion)) [Phage-293 clonal phage peptide] |  |  | 2.49 | 0.171
MDWCPRALWFECFF (on phage (pIII fusion)) [Phage-234 clonal phage peptide] |  |  | 2.67 | 0.331
MDWCPRHMWHECFH [Phage-402] | 0.171 | 1.81 |  | 
MDWCPRSMWDSCFN [Phage-399] | 0.142 | 2.02 |  | 
MDWCPRDMWTSCFN [Phage-404] | 0.179 | 1.41 |  | 
MYWCPKYMWSECFA [Phage-418] | 0.099 | 0.741 |  | 
QHWCPRDMWNDCYA [Phage-412] | 0.149 | 1.08 |  | 
MYWCPINMWDYCYA [Phage-422] | 0.088 | 0.109 |  | 
MDWCARFVGYGCLD (on phage (pIII fusion)) [Phage-232 clonal phage peptide] |  |  | 0.065 | 0.074
MSWCPRFMWHECFN [Phage-411] | 0.246 | 1.11 |  | 
MNWCPIHMWNQCFA [Phage-407] | 0.133 | 1.37 |  | 
LHWCPITMWTYCYY [Phage-409] | 0.516 | 1.21 |  | 
MDWCPMYMWHKCFH [Phage-415] | 0.168 | 0.987 |  | 
TDWCPRDMWYLCFN [Phage-396] | 0.301 | 2.11 |  | 
MDWCPFDMWADCFF [Phage-391] | 0.215 | 2.53 |  | 
MDWCPRDRWIDCFN (on phage (pIII fusion)) [Phage-226 clonal phage peptide] |  |  | 0.339 | 0.131

Binder | CD28 scFv signal in presence of CD28 [1] | CD28 scFv signal [2] | CD28 scFv signal [3] | CD28 scFv signal in presence of CD28 [4]
MDWCPRDRWSDCFN (on phage (pIII fusion)) [Phage-227 clonal phage peptide] |  |  | 0.102 | 0.074
TFGCPTTMWNRCFA (on phage (pIII fusion)) [Phage-218 clonal phage peptide] |  |  | 0.181 | 0.068
MDWCPLDMWVLCFA [Phage-401] | 0.169 | 1.84 |  | 
MDWCPRDMWFECFN [Phage-393] | 0.778 | 2.42 |  | 
MDWCPRAMWDYCFY [Phage-397] | 0.339 | 2.11 |  | 
MSWCPWDMWNECFA [Phage-403] | 0.108 | 1.52 |  | 
MFWCPSTMWNRCFD [Phage-420] | 0.138 | 0.464 |  | 
LYWCPRDMWAYCYS [Phage-414] | 0.157 | 1.02 |  | 
MDWCPWDMWDKCFN (on phage (pIII fusion)) [Phage-217 clonal phage peptide] |  |  | 0.586 | 0.108
MTWCPTSFWNRCLD (on phage (pIII fusion)) [Phage-233 clonal phage peptide] |  |  | 0.392 | 0.405
TTWCPTSMWLHCFD (on phage (pIII fusion)) [Phage-221 clonal phage peptide] |  |  | 0.074 | 0.072
MDWCPSDMWSNCFN [Phage-413] | 0.121 | 1.07 |  | 
MNWCPIDMWTECFN [Phage-406] | 0.175 | 1.4 |  | 
MDWCPKDRWNDCYF (on phage (pIII fusion)) [Phage-224 clonal phage peptide] |  |  | 1.09 | 
MDWCPRDQWHNCFN (on phage (pIII fusion)) [Phage-222 clonal phage peptide] |  |  | 0.2 | 0.078
VPWCQIISGLECLT (on phage (pIII fusion)) [Phage-229 clonal phage peptide] |  |  | 0.174 | 0.077
APWCQIISGLECLT (on phage (pIII fusion)) [Phage-230 clonal phage peptide] |  |  | 0.169 | 0.078
NYWCPSSMWNRCLH (on phage (pIII fusion)) [Phage-219 clonal phage peptide] |  |  | 0.158 | 0.088
MDWCPRYMWSDCFF [Phage-394] | 0.377 | 2.28 |  | 
MFWCPKDMWAECFA [Phage-408] | 0.113 | 1.26 |  | 
MDWCPRDRWVDCFF (on phage (pIII fusion)) [Phage-223 clonal phage peptide] |  |  | 1.58 | 0.14
MDWCPRDRWADCFF (on phage (pIII fusion)) [Phage-225 clonal phage peptide] |  |  | 0.392 | 0.089
IDWCPRYMWHECFF [Phage-410] | 0.164 | 1.18 |  | 
